The record followed here is patent US20050164936A1.

Experiment in all cases: cell-based or functional assay
Test [1] deals with T1, CC chemokine receptor CCR1 (UniProt P32246).
T1 sequence (looked up): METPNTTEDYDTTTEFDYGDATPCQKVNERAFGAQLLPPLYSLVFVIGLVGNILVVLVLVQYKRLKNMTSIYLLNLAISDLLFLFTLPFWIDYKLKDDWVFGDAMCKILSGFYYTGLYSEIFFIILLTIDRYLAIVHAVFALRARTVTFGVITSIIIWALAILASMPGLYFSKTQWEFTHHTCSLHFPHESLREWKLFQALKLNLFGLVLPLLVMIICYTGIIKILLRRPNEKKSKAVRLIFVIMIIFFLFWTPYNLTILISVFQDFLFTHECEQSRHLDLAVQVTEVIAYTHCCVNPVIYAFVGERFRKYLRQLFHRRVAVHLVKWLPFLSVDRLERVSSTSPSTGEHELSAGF

The target of test [2] is CC chemokine receptor CCR5 (human) (UniProt P51681).
Test [3] addresses T2, CC chemokine receptor CCR3 (UniProt P51677).
T2 sequence (looked up): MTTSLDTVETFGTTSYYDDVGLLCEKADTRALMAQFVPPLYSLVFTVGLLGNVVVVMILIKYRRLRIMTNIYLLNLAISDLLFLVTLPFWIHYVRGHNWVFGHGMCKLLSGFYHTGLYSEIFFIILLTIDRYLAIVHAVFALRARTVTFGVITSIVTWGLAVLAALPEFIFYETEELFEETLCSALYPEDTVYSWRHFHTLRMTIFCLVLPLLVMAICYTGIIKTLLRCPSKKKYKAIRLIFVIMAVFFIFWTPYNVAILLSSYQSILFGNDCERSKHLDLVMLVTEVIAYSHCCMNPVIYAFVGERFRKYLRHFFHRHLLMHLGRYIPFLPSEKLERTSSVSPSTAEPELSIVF

Test [4] addresses RANTES(1-68) (human) (UniProt P13501).

RANTES(3-68), sequence (P13501 26-91 limits assumed): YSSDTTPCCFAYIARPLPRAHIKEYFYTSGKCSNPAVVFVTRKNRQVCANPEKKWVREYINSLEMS
CC chemokine receptor CCR5 (human), sequence (P51681 whole entry): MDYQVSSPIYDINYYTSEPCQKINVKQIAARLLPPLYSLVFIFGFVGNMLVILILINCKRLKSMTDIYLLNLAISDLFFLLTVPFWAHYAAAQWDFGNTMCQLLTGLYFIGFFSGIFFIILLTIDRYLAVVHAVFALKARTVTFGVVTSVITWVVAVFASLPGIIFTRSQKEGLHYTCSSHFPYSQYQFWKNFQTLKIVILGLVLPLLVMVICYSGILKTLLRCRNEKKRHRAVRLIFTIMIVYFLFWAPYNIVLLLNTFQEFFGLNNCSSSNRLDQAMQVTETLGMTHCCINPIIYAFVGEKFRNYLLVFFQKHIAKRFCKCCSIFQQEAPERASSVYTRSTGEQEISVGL
RANTES(1-68), sequence (P13501 24-91 limits assumed): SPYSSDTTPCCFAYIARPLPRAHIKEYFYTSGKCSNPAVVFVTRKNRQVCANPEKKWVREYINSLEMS
RANTES(1-68) (human), sequence (P13501 24-91 limits assumed): as above
soluble CD26 (sCD26), sequence (P27487 39-766 limits assumed): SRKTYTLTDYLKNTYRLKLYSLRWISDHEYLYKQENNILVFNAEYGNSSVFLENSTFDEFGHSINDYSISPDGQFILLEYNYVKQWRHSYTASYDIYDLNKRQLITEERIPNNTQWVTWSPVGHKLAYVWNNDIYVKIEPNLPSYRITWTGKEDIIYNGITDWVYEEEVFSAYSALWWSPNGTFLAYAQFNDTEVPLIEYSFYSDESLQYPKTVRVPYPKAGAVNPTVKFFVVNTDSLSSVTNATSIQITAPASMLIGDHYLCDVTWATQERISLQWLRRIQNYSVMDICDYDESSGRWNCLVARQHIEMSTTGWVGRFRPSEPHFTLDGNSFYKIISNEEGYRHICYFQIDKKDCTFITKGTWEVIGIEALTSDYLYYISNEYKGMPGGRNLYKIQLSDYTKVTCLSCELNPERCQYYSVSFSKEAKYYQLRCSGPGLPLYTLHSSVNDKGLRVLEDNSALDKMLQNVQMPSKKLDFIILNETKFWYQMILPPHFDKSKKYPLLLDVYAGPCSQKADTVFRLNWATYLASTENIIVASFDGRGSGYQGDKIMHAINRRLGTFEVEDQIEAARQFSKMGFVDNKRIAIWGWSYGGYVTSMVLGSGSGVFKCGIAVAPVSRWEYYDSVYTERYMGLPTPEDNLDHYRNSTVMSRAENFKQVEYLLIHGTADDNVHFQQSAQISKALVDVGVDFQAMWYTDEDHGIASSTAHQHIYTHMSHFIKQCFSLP

For the substance “RANTES(1-68) (from UniProt P13501 24-91) (ligand)”, in test [1], the Increase in [Ca2+]i (nM) at 10 ng/ml, HOS cells transfected with CD4 and CCR1 is under 16 nM; the Increase in [Ca2+]i (nM) at 30 ng/ml, HOS cells transfected with CD4 and CCR1 was determined as 25 nM; the Increase in [Ca2+]i (nM) at 100 ng/ml, HOS cells transfected with CD4 and CCR1 was 100 nM; the Increase in [Ca2+]i (nM) at 300 ng/ml, HOS cells transfected with CD4 and CCR1 amounted to 133 nM. In test [2], the IC50, inhibition of HIV-1 BaL replication in HOS.CD4.CCR5 cells (p24 Ag ELISA) is over 130 nM; the IC50, inhibition of HIV-1 BaL replication in U87.CD4.CCR5 cells (p24 Ag ELISA) came to 21 nM; the IC90, inhibition of HIV-1 BaL replication in HOS.CD4.CCR5 cells (p24 Ag ELISA) is over 130 nM; the IC90, inhibition of HIV-1 BaL replication in U87.CD4.CCR5 cells (p24 Ag ELISA) was over 130 nM. Also, in test [2], the Increase in [Ca2+]i (nM) at 10 ng/ml, HOS cells transfected with CD4 and CCR5 is under 15 nM; the Increase in [Ca2+]i (nM) at 30 ng/ml, HOS cells transfected with CD4 and CCR5 came to 24 nM; the Increase in [Ca2+]i (nM) at 100 ng/ml, HOS cells transfected with CD4 and CCR5 worked out at 60 nM; the Increase in [Ca2+]i (nM) at 300 ng/ml, HOS cells transfected with CD4 and CCR5 came out at 96 nM. This substance returned an inhibition of the [Ca2+]i rise by a subsequent challenge with intact RANTES (100 ng/ml) after pre-incubation of CCR5-transfected cells with a 3- to 10-fold excess in test [2] of 75%. This substance registered a concentration sufficient to increase [Ca2+]i in HOS cells transfected with CCR3 in test [3] of 100 ng/mL.

In test [1], “RANTES(3-68) (from UniProt P13501 26-91) (ligand)” displayed an Increase in [Ca2+]i (nM) at 30 ng/ml, HOS cells transfected with CD4 and CCR1 of under 15 nM; an Increase in [Ca2+]i (nM) at 100 ng/ml, HOS cells transfected with CD4 and CCR1 of under 15 nM; an Increase in [Ca2+]i (nM) at 300 ng/ml, HOS cells transfected with CD4 and CCR1 of 19 nM. In test [2], this substance gave an IC50, inhibition of HIV-1 BaL replication in HOS.CD4.CCR5 cells (p24 Ag ELISA) of 5.5 nM; an IC50, inhibition of HIV-1 BaL replication in U87.CD4.CCR5 cells (p24 Ag ELISA) of 0.65 nM; an IC90, inhibition of HIV-1 BaL replication in HOS.CD4.CCR5 cells (p24 Ag ELISA) of over 130 nM; an IC90, inhibition of HIV-1 BaL replication in U87.CD4.CCR5 cells (p24 Ag ELISA) of 63 nM. In test [2], this substance yielded an Increase in [Ca2+]i (nM) at 10 ng/ml, HOS cells transfected with CD4 and CCR5 of under 15 nM; an Increase in [Ca2+]i (nM) at 30 ng/ml, HOS cells transfected with CD4 and CCR5 of 56 nM; an Increase in [Ca2+]i (nM) at 100 ng/ml, HOS cells transfected with CD4 and CCR5 of 76 nM; an Increase in [Ca2+]i (nM) at 300 ng/ml, HOS cells transfected with CD4 and CCR5 of 119 nM. The substance further registered an inhibition of the [Ca2+]i rise by a subsequent challenge with intact RANTES (100 ng/ml) after pre-incubation of CCR5-transfected cells with a 3- to 10-fold excess in test [2] of 75%. The same substance registered a concentration needed to increase [Ca2+]i in HOS cells transfected with CCR3 in test [3] of over 300 ng/mL.

Substance “soluble CD26 (sCD26) (from UniProt P27487 39-766) (enzyme)” yielded an IC50 of RANTES(1-68) against HIV-1 BaL in HOS.CD4.CCR5 cells when sCD26 at 50 U/l is added (p24 Ag ELISA) in test [4] of 13 nM.
